Target: Haemophilus influenzae tellurite-resistance protein A (HiTehA) (Haemophilus influenzae) (UniProt P44741)
Experiment: cryo-EM structure; single-particle cryo-EM at 200 kV (Glacios, Falcon 4) of purified HiTehA at 3.0 mg/mL in detergent micelles (DDM, GDN, LMNG or OG); C3 symmetry imposed; no binding protein used

Substance: Haemophilus influenzae tellurite-resistance protein A (HiTehA) (from UniProt P44741 1-328) (natural protein)
- stoichiometry N: 3

Source: publication PMC11050165
